# Patent US20260001928A1 (CORTERIA PHARMACEUTICALS, priority 2022, published 2026)
# *1 amine or outer side, *2 acyl side, *3 side chain or, on linkers, in order; H or OH if unused. Side-chain parts run from the residue outwards. [ ]: non-standard residue; d: D form. The star is where a group is joined. C18 diacid = O=C(O)CCCCCCCCCCCCCCCCC(=O)*; C16 diacid = O=C(O)CCCCCCCCCCCCCCC(=O)*; γGlu = O=C(O)[C@H](CCC(=O)[*:2])N[*:1]; Api = NC1(C(=O)O)CCNCC1; AEEA = NCCOCCOCC(=O)O; Aib = CC(C)(N)C(=O)O; Propionyl = CCC(=O)*; Butyryl = CCCC(=O)*
# T1: CRF1R receptor (UniProt P34998 24-415, limits assumed)
# T1 sequence (looked up): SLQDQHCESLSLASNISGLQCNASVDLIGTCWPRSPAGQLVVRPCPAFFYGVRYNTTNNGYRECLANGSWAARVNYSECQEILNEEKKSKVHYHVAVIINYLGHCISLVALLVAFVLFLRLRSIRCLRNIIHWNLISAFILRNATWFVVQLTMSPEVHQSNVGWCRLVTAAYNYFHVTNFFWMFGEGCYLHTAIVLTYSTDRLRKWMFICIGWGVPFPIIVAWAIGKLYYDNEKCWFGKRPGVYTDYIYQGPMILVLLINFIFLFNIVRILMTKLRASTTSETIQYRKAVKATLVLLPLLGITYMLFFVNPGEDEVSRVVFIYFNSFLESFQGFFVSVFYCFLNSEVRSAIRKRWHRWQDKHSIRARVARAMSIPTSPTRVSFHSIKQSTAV
# B1: SEQ ID NO 57 (peptide)
# peptide: Ac-IVLSLD[dV]PIKLK([γGlu-C16 diacid])KILLEQEKQKKQREQAETN[Api]QILAQV-NH2
# SMILES: CC[C@H](C)[C@H](NC(C)=O)C(=O)N[C@H](C(=O)N[C@@H](CC(C)C)C(=O)N[C@@H](CO)C(=O)N[C@@H](CC(C)C)C(=O)N[C@@H](CC(=O)O)C(=O)N[C@@H](C(=O)N1CCC[C@H]1C(=O)N[C@H](C(=O)N[C@@H](CCCCN)C(=O)N[C@@H](CC(C)C)C(=O)N[C@@H](CCCCNC(=O)CC[C@H](NC(=O)CCCCCCCCCCCCCCC(=O)O)C(=O)O)C(=O)N[C@@H](CCCCN)C(=O)N[C@H](C(=O)N[C@@H](CC(C)C)C(=O)N[C@@H](CC(C)C)C(=O)N[C@@H](CCC(=O)O)C(=O)N[C@@H](CCC(N)=O)C(=O)N[C@@H](CCC(=O)O)C(=O)N[C@@H](CCCCN)C(=O)N[C@@H](CCC(N)=O)C(=O)N[C@@H](CCCCN)C(=O)N[C@@H](CCCCN)C(=O)N[C@@H](CCC(N)=O)C(=O)N[C@@H](CCCNC(=N)N)C(=O)N[C@@H](CCC(=O)O)C(=O)N[C@@H](CCC(N)=O)C(=O)N[C@@H](C)C(=O)N[C@@H](CCC(=O)O)C(=O)N[C@H](C(=O)N[C@@H](CC(N)=O)C(=O)NC1(C(=O)N[C@@H](CCC(N)=O)C(=O)N[C@H](C(=O)N[C@@H](CC(C)C)C(=O)N[C@@H](C)C(=O)N[C@@H](CCC(N)=O)C(=O)N[C@H](C(N)=O)C(C)C)[C@@H](C)CC)CCNCC1)[C@@H](C)O)[C@@H](C)CC)[C@@H](C)CC)C(C)C)C(C)C
# B2: SEQ ID NO 78 (peptide)
# peptide: Propionyl-VLSLD[dV]PIKLK([γGlu-C16 diacid])KILLEQEKQKKQREQAETN[Aib]QILAQV-NH2
# SMILES: CCC(=O)N[C@H](C(=O)N[C@@H](CC(C)C)C(=O)N[C@@H](CO)C(=O)N[C@@H](CC(C)C)C(=O)N[C@@H](CC(=O)O)C(=O)N[C@@H](C(=O)N1CCC[C@H]1C(=O)N[C@H](C(=O)N[C@@H](CCCCN)C(=O)N[C@@H](CC(C)C)C(=O)N[C@@H](CCCCNC(=O)CC[C@H](NC(=O)CCCCCCCCCCCCCCC(=O)O)C(=O)O)C(=O)N[C@@H](CCCCN)C(=O)N[C@H](C(=O)N[C@@H](CC(C)C)C(=O)N[C@@H](CC(C)C)C(=O)N[C@@H](CCC(=O)O)C(=O)N[C@@H](CCC(N)=O)C(=O)N[C@@H](CCC(=O)O)C(=O)N[C@@H](CCCCN)C(=O)N[C@@H](CCC(N)=O)C(=O)N[C@@H](CCCCN)C(=O)N[C@@H](CCCCN)C(=O)N[C@@H](CCC(N)=O)C(=O)N[C@@H](CCCNC(=N)N)C(=O)N[C@@H](CCC(=O)O)C(=O)N[C@@H](CCC(N)=O)C(=O)N[C@@H](C)C(=O)N[C@@H](CCC(=O)O)C(=O)N[C@H](C(=O)N[C@@H](CC(N)=O)C(=O)NC(C)(C)C(=O)N[C@@H](CCC(N)=O)C(=O)N[C@H](C(=O)N[C@@H](CC(C)C)C(=O)N[C@@H](C)C(=O)N[C@@H](CCC(N)=O)C(=O)N[C@H](C(N)=O)C(C)C)[C@@H](C)CC)[C@@H](C)O)[C@@H](C)CC)[C@@H](C)CC)C(C)C)C(C)C
# B3: SEQ ID NO 79 (peptide)
# peptide: Butyryl-VLSLD[dV]PIKLK([γGlu-C16 diacid])KILLEQEKQKKQREQAETN[Aib]QILAQV-NH2
# SMILES: CCCC(=O)N[C@H](C(=O)N[C@@H](CC(C)C)C(=O)N[C@@H](CO)C(=O)N[C@@H](CC(C)C)C(=O)N[C@@H](CC(=O)O)C(=O)N[C@@H](C(=O)N1CCC[C@H]1C(=O)N[C@H](C(=O)N[C@@H](CCCCN)C(=O)N[C@@H](CC(C)C)C(=O)N[C@@H](CCCCNC(=O)CC[C@H](NC(=O)CCCCCCCCCCCCCCC(=O)O)C(=O)O)C(=O)N[C@@H](CCCCN)C(=O)N[C@H](C(=O)N[C@@H](CC(C)C)C(=O)N[C@@H](CC(C)C)C(=O)N[C@@H](CCC(=O)O)C(=O)N[C@@H](CCC(N)=O)C(=O)N[C@@H](CCC(=O)O)C(=O)N[C@@H](CCCCN)C(=O)N[C@@H](CCC(N)=O)C(=O)N[C@@H](CCCCN)C(=O)N[C@@H](CCCCN)C(=O)N[C@@H](CCC(N)=O)C(=O)N[C@@H](CCCNC(=N)N)C(=O)N[C@@H](CCC(=O)O)C(=O)N[C@@H](CCC(N)=O)C(=O)N[C@@H](C)C(=O)N[C@@H](CCC(=O)O)C(=O)N[C@H](C(=O)N[C@@H](CC(N)=O)C(=O)NC(C)(C)C(=O)N[C@@H](CCC(N)=O)C(=O)N[C@H](C(=O)N[C@@H](CC(C)C)C(=O)N[C@@H](C)C(=O)N[C@@H](CCC(N)=O)C(=O)N[C@H](C(N)=O)C(C)C)[C@@H](C)CC)[C@@H](C)O)[C@@H](C)CC)[C@@H](C)CC)C(C)C)C(C)C
# B4: SEQ ID NO 99 (peptide)
# peptide: Ac-VLSLD[dV]PIKLK([AEEA-AEEA-γGlu-C18 diacid])KILLEQEKQKKQREQAETN[Aib]QILAQV-NH2
# SMILES: CC[C@H](C)[C@H](NC(=O)[C@H](CCC(N)=O)NC(=O)C(C)(C)NC(=O)[C@H](CC(N)=O)NC(=O)[C@@H](NC(=O)[C@H](CCC(=O)O)NC(=O)[C@H](C)NC(=O)[C@H](CCC(N)=O)NC(=O)[C@H](CCC(=O)O)NC(=O)[C@H](CCCNC(=N)N)NC(=O)[C@H](CCC(N)=O)NC(=O)[C@H](CCCCN)NC(=O)[C@H](CCCCN)NC(=O)[C@H](CCC(N)=O)NC(=O)[C@H](CCCCN)NC(=O)[C@H](CCC(=O)O)NC(=O)[C@H](CCC(N)=O)NC(=O)[C@H](CCC(=O)O)NC(=O)[C@H](CC(C)C)NC(=O)[C@H](CC(C)C)NC(=O)[C@@H](NC(=O)[C@H](CCCCN)NC(=O)[C@H](CCCCNC(=O)COCCOCCNC(=O)COCCOCCNC(=O)CC[C@H](NC(=O)CCCCCCCCCCCCCCCCC(=O)O)C(=O)O)NC(=O)[C@H](CC(C)C)NC(=O)[C@H](CCCCN)NC(=O)[C@@H](NC(=O)[C@@H]1CCCN1C(=O)[C@H](NC(=O)[C@H](CC(=O)O)NC(=O)[C@H](CC(C)C)NC(=O)[C@H](CO)NC(=O)[C@H](CC(C)C)NC(=O)[C@@H](NC(C)=O)C(C)C)C(C)C)[C@@H](C)CC)[C@@H](C)CC)[C@@H](C)O)C(=O)N[C@@H](CC(C)C)C(=O)N[C@@H](C)C(=O)N[C@@H](CCC(N)=O)C(=O)N[C@H](C(N)=O)C(C)C
# Molecular target: human corticotropin-releasing factor 2a (CRF2a receptor) (human), Q13324
# Experiment: cell-based or functional assay
# Sequence of human corticotropin-releasing factor 2a (CRF2a receptor) (human), Q13324 (Q13324 20-411): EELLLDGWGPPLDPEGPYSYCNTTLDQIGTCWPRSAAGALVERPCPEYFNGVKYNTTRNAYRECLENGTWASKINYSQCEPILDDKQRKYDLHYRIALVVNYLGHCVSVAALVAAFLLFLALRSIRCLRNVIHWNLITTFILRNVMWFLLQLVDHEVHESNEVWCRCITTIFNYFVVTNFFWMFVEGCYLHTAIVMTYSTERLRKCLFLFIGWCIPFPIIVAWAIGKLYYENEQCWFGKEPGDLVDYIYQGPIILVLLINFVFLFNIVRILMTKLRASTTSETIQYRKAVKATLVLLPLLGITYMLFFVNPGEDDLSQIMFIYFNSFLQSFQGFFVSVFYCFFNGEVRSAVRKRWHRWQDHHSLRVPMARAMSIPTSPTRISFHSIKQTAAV
row,EC50 [nM] (cAMP),Binder
1,0.39 nM,B1
2,0.73 nM,B2
3,0.38 nM,B3
4,6.07 nM,B4

# Molecular target: T1, CRF1R receptor
# Experiment: cell-based or functional assay
row,Emax (% I),Binder
1,24%,B1
2,7%,B2
3,10%,B3
4,0%,B4
